B1: Alpha-lactalbumin, P00712 (parent)
chain: MMSFVSLLLVGILFHATQAEQLTKCEVFQKLKDLKDYGGVSLPEWVCTAFHTSGYDTQAIVQNNDSTEYGLFQINNKIWCKDDQNPHSRNICNISCDKFLDDDLTDDIVCAKKILDKVGINYWLAHKALCSEKLDQWLCEKL

Variants of: B1
Details: Capra hircus; pH 7; 25 °C; GdnHCl; CD; sodium cacodylate 50 mM; NaCl 50 mM; reversible: yes; structure 1HFY; whole UniProt chain shown

Variant: MMSFVSLLLVGILFHATQAEQLTKCEVFQKLKDLKDYGGVSLPEWVCIAFHTSGYDTQAIVQNNDSTEYGLFQINNKIWCKDDQNPHSRNICNISCDKFLDDDLTDDIVCAKKILDKVGINYWLAHKALCSEKLDQWLCEKL
- ddG of mutation (higher = less stable): -4.4 kcal/mol
- denaturant m value: 2.6 kcal/mol/M
- denaturant midpoint (higher = more stable): 3.93 M
- unfolding free energy: 10.1 kcal/mol

Variant: MMSFVSLLLVGILFHATQAEQLTKCEVFQKLKDLKDYGGVSLPEWVCTIFHTSGYDTQAIVQNNDSTEYGLFQINNKIWCKDDQNPHSRNICNISCDKFLDDDLTDDIVCAKKILDKVGINYWLAHKALCSEKLDQWLCEKL
- ddG of mutation (higher = less stable): -2.4 kcal/mol
- denaturant m value: 2.7 kcal/mol/M
- denaturant midpoint (higher = more stable): 3.01 M
- unfolding free energy: 8.1 kcal/mol

Variant: MMSFVSLLLVGILFHATQAEQLTKCEVFQKLKDLKDYGGVSLPEWVCTIFHISGYDTQAIVQNNDSTEYGLFQINNKIWCKDDQNPHSRNICNISCDKFLDDDLTDDIVCAKKILDKVGINYWLAHKALCSEKLDQWLCEKL
- ddG of mutation (higher = less stable): -0.4 kcal/mol
- denaturant m value: 2.1 kcal/mol/M
- denaturant midpoint (higher = more stable): 2.85 M
- unfolding free energy: 6.1 kcal/mol

Variant: MMSFVSLLLVGILFHATQAEQLTKCEVFQKLKDLKDYGGVSLPEWVCTTFHTSGYDTQAIVQNNDSTEYGLFQINNKIWCKDDQNPHSRNICNISCDKFLDDDLTDDIVCAKKILDKVGINYWLAHKALCSEKLDQWLCEKL
- ddG of mutation (higher = less stable): -1.7 kcal/mol
- denaturant m value: 3.1 kcal/mol/M
- denaturant midpoint (higher = more stable): 2.44 M
- unfolding free energy: 7.4 kcal/mol

Variant: MMSFVSLLLVGILFHATQAEQLTKCEVFQKLKDLKDYGGVSLPEWVCTAFHISGYDTQAIVQNNDSTEYGLFQINNKIWCKDDQNPHSRNICNISCDKFLDDDLTDDIVCAKKILDKVGINYWLAHKALCSEKLDQWLCEKL
- ddG of mutation (higher = less stable): 1.1 kcal/mol
- denaturant m value: 2 kcal/mol/M
- denaturant midpoint (higher = more stable): 2.31 M
- unfolding free energy: 4.6 kcal/mol

From FireProtDB
